Test results: publication PMC5519978, “DNA binding drives the association of BRG1/hBRM bromodomains with nucleosomes”

How the values were obtained:
hBRM-A AT-BRD = hBRM-A AT-BRD (human, UniProt P51531 1358-1508); test: NMR titration; 1:1 stoichiometric; FA and NMR: 50 mM K phosphate pH 7.0, 50 mM KCl, 0.5 mM EDTA, 1 mM DTT (NMR +10% D2O), 20 C (BRG1 NMR 25 C); EMSA: 150 nM DNA/NCP, 10 mM K phosphate, 10 mM KCl, on ice, 0.2x TBE gel; conditions: protein: recombinant; tags: pDEST15 (GST) with PreScission site; blunt
hBRM-A AT-BRD, sequence (P51531 1358-1508): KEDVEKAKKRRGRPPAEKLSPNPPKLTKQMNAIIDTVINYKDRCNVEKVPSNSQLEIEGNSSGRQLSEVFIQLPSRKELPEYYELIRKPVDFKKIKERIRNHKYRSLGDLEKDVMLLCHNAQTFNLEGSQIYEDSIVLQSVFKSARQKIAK

BRG1 AT-BRD [1] = molecular target: T1, BRG1 AT-BRD (human, UniProt P51532 1434-1569); test: NMR titration; 25 C; FA and NMR: 50 mM K phosphate pH 7.0, 50 mM KCl, 0.5 mM EDTA, 1 mM DTT (NMR +10% D2O), 20 C (BRG1 NMR 25 C); EMSA: 150 nM DNA/NCP, 10 mM K phosphate, 10 mM KCl, on ice, 0.2x TBE gel; conditions: protein: recombinant; tags: pDEST15 or pGEX6p1 (GST); blunt
T1 sequence (P51532 1434-1569): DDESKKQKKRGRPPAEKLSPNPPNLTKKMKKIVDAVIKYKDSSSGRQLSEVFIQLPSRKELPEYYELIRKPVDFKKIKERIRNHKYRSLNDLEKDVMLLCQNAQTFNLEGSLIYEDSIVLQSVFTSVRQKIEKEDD

BRG1 AT-BRD [2] = molecular target: T1, BRG1 AT-BRD; test: fluorescence anisotropy; FA and NMR: 50 mM K phosphate pH 7.0, 50 mM KCl, 0.5 mM EDTA, 1 mM DTT (NMR +10% D2O), 20 C (BRG1 NMR 25 C); EMSA: 150 nM DNA/NCP, 10 mM K phosphate, 10 mM KCl, on ice, 0.2x TBE gel; conditions: protein: recombinant; tags: pDEST15 or pGEX6p1 (GST); label: 5' 6-FAM on strand 1; blunt

B1: DNAI (dsDNA)
DNA 1: CTCAATTGGT
DNA 2: ACCAATTGAG
binding result (hBRM-A AT-BRD): binds
binding result (BRG1 AT-BRD [1]): binds

B2: DNAIII (dsDNA)
DNA 1: CCTCAATTGGTCGTAG
DNA 2: CTACGACCAATTGAGG
binding result (hBRM-A AT-BRD): binds

B3: DNAII (dsDNA)
DNA 1: CGTAGACAGCT
DNA 2: AGCTGTCTACG
binding result (BRG1 AT-BRD [1]): binds

B4: DNAI.FA (dsDNA)
DNA 1: CCTCAATTGGTC
DNA 2: GACCAATTGAGG
Kd (BRG1 AT-BRD [2]): 16 ± 2 µM

B5: DNAII.FA (dsDNA)
DNA 1: CGTAGACAGCTC
DNA 2: GAGCTGTCTACG
Kd (BRG1 AT-BRD [2]): 40 ± 10 µM
